Legend:
[1] = target: human B-type natriuretic peptide (human); test: sandwich CMIA, capture 106.3 AM1, hBNP 2000 pg/mL (577.4 pM)
[2] = target: human pro B-type natriuretic peptide (human); test: sandwich CMIA, capture BNP 3-631-436 ms, proBNP spike 103 pg/mL, read off hBNP curve
[3] = target: human pro B-type natriuretic peptide (human); test: sandwich CMIA, capture 106.3AM1, proBNP spike 515 pg/mL, read off hBNP curve
[4] = target: human pro B-type natriuretic peptide (human); test: sandwich CMIA, capture 106.3AM1, proBNP spike 6872 pg/mL, read off hBNP curve
[5] = target: human pro B-type natriuretic peptide (human); test: sandwich CMIA, capture 106.3AM1, proBNP spike 3436 pg/mL, read off hBNP curve
[6] = target: human pro B-type natriuretic peptide (human); test: sandwich CMIA, capture BNP 3-631-436 ms, proBNP spike 3436 pg/mL, read off hBNP curve
[7] = target: human B-type natriuretic peptide (human); test: sandwich CMIA, capture BNP 3-631-436 ms, hBNP 30 pg/mL (8.67 pM)
[8] = target: human pro B-type natriuretic peptide (human); test: sandwich CMIA, capture 106.3AM1, proBNP spike 1031 pg/mL, read off hBNP curve
[9] = target: human B-type natriuretic peptide (human); test: sandwich CMIA, capture 106.3 AM1, hBNP 0 pg/mL (blank)
[10] = target: human B-type natriuretic peptide (human); test: sandwich CMIA, capture BNP 3-631-436 ms, hBNP 1000 pg/mL (288.7 pM)
[11] = target: human pro B-type natriuretic peptide (human); test: sandwich CMIA, capture BNP 3-631-436 ms, proBNP spike 515 pg/mL, read off hBNP curve
[12] = target: human B-type natriuretic peptide (human); test: sandwich CMIA, capture 106.3 AM1, hBNP 150 pg/mL (43.3 pM)
[13] = target: human B-type natriuretic peptide (human); test: sandwich CMIA, capture 106.3 AM1, hBNP 30 pg/mL (8.67 pM)
[14] = target: human B-type natriuretic peptide (human); test: sandwich CMIA, capture 106.3 AM1, hBNP 300 pg/mL (86.6 pM)
[15] = target: human B-type natriuretic peptide (human); test: sandwich CMIA, capture 106.3 AM1, hBNP 1000 pg/mL (288.7 pM)
[16] = target: human pro B-type natriuretic peptide (human); test: sandwich CMIA, capture BNP 3-631-436 ms, proBNP spike 1031 pg/mL, read off hBNP curve
[17] = target: human pro B-type natriuretic peptide (human); test: sandwich CMIA, capture BNP 3-631-436 ms, proBNP spike 6872 pg/mL, read off hBNP curve
[18] = target: human B-type natriuretic peptide (human); test: sandwich CMIA, capture BNP 3-631-436 ms, hBNP 300 pg/mL (86.6 pM)
[19] = target: human pro B-type natriuretic peptide (human); test: sandwich CMIA, capture 106.3AM1, proBNP spike 103 pg/mL, read off hBNP curve
[20] = target: human B-type natriuretic peptide (human); test: sandwich CMIA, capture BNP 3-631-436 ms, hBNP 2000 pg/mL (577.4 pM)
[21] = target: human B-type natriuretic peptide (human); test: sandwich CMIA, capture BNP 3-631-436 ms, hBNP 150 pg/mL (43.3 pM)
[22] = target: human B-type natriuretic peptide (human); test: sandwich CMIA, capture BNP 3-631-436 ms, hBNP 0 pg/mL (blank)

Chain of human pro B-type natriuretic peptide (human) (chain, as listed by the source): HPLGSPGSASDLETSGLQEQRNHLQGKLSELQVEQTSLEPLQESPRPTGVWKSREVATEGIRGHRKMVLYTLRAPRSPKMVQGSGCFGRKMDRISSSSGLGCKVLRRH
Chain of human B-type natriuretic peptide (human) (peptide, as listed by the source): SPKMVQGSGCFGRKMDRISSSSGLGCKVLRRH

Question: What does the source list for monoclonal antibody BC203?
Answer: RLU [1]: 223000 RLU; Readback [2]: -5.3 pg/mL; Recovery [2]: -7%; Readback [3]: 190 pg/mL; Recovery [3]: 36.8%; Readback [4]: 2830 pg/mL; Recovery [4]: 41.2%; Readback [5]: 1370 pg/mL; Recovery [5]: 39.7%; Readback [6]: 482 pg/mL; Recovery [6]: 19.3%; RLU [7]: 1340 RLU; Readback [8]: 456 pg/mL; Recovery [8]: 44.2%; RLU [9]: 768 RLU; RLU [10]: 83500 RLU; Readback [11]: 40.8 pg/mL; Recovery [11]: 10.9%; RLU [12]: 3850 RLU; RLU [13]: 1030 RLU; RLU [14]: 8760 RLU; RLU [15]: 65500 RLU; Readback [16]: 111 pg/mL; Recovery [16]: 14.8%; Readback [17]: 895 pg/mL; Recovery [17]: 17.9%; RLU [18]: 11900 RLU; Readback [19]: 117 pg/mL; Recovery [19]: 114%; RLU [20]: 270000 RLU; RLU [21]: 4690 RLU; RLU [22]: 803 RLU
